According to IntAct's records for PubMed 31036956:

B1: Proto-oncogene Wnt-3 (Homo sapiens), P56703 (parent)
chain: MEPHLLGLLLGLLLGGTRVLAGYPIWWSLALGQQYTSLGSQPLLCGSIPGLVPKQLRFCRNYIEIMPSVAEGVKLGIQECQHQFRGRRWNCTTIDDSLAIFGPVLDKATRESAFVHAIASAGVAFAVTRSCAEGTSTICGCDSHHKGPPGEGWKWGGCSEDADFGVLVSREFADARENRPDARSAMNKHNNEAGRTTILDHMHLKCKCHGLSGSCEVKTCWWAQPDFRAIGDFLKDKYDSASEMVVEKHRESRGWVETLRAKYSLFKPPTERDLVYYENSPNFCEPNPETGSFGTRDRTCNVTSHGIDGCDLLCCGRGHNTRTEKRKEKCHCIFHWCCYVSCQECIRIYDVHTCK

Variants of: B1
Details: with lrp6_human LRP6, O75581
lrp6_human LRP6, O75581, sequence (O75581 whole entry): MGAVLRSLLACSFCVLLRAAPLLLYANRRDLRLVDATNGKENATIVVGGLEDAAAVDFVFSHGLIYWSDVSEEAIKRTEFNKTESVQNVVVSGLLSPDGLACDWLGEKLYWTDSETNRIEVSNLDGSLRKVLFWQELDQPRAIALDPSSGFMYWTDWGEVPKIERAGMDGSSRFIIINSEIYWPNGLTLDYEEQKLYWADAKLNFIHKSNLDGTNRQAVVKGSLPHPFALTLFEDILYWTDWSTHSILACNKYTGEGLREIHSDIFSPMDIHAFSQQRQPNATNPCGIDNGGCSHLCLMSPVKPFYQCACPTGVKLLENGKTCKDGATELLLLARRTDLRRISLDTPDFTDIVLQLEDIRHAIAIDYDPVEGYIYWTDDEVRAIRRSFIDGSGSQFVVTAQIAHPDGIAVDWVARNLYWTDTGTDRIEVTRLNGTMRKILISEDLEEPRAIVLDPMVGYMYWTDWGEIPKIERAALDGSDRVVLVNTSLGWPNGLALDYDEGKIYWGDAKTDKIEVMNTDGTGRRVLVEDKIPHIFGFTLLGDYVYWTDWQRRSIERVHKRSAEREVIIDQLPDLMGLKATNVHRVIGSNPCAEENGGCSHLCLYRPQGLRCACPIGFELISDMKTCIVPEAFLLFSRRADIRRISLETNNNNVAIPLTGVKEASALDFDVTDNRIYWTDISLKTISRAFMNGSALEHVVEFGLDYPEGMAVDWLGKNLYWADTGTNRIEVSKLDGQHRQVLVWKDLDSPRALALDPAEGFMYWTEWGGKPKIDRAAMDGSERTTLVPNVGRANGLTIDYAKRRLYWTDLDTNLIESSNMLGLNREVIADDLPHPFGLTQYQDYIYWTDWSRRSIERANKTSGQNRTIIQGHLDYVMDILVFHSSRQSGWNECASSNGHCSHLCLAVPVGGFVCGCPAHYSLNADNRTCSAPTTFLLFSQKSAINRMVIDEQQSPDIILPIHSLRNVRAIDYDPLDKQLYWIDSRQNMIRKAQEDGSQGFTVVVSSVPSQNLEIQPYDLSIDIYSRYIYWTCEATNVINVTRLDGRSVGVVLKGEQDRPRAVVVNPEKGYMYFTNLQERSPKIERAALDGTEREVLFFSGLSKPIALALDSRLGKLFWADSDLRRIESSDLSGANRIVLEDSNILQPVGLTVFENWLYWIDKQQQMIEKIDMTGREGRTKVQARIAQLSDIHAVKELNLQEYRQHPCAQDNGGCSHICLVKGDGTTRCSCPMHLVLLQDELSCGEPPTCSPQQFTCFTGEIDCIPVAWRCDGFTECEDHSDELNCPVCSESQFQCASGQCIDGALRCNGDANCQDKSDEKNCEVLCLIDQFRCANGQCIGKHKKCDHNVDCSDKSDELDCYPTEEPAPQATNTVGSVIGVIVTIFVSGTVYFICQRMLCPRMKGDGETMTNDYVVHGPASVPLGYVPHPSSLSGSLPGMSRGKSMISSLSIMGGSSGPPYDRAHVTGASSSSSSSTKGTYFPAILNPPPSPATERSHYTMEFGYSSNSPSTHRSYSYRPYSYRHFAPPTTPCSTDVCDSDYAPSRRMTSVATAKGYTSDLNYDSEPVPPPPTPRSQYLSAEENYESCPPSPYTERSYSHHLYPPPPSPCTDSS
For MEPHLLGLLLGLLLGGTRVLAGYPIWWSLALGQQYTSLGSQPLLCGSIPGLVPKQLRFCRNYIEIMPSVAEGVKLGIQECQHQFRGRRWNCTTIDDSLAIFGPVLDKATRESAFVHAIASAGVAFAVTRSCAEGTSTICGCDSHHKGPPGEGWKWGGCSEDADFGVLVSREFADARENRPDARSAMNKHNNEAGRTTILDHMHLKCKCHGLSGSCEVKTCWWAQPDFRAIGDFLKDKYDSASEMVVEKHRESEGWVETLRAKYSLFKPPTERDLVYYENSPNFCEPNPETGSFGTRDRTCNVTSHGIDGCDLLCCGRGHNTRTEKRKEKCHCIFHWCCYVSCQECIRIYDVHTCK [R253E], the “effect of a mutation on the interaction” value was “disrupting interaction”.
